# Experimental data taken from patent publication CN113563464A (NAT CENTER FOR AIDS/STD CONTROL AND PREVENTION CHINA CDC, dated 2021).
# Target: SARS-Cov-2的生物素化RBD (RBD蛋白, NC_045512, 6×His-Avi标签) (SARS-CoV-2, UniProt P0DTC2 319-541)
row,Binder,Kd
1,"WJQ-G10 (antibody, V domains shown) VH: EVQLVESGGGLVQPGESLRLSCAASGLTVSSNYMSWVRQAPGKGLEWVSVIYAGGSTFYADSVKGRFTISRDNSKNTLYLQMNSLRAEDMAIYYCARDLSYYGMDVWGQGTTVTVSS VL: DIQLTQFPFSLSASVGDRVTITCRASQGISTYLAWYQQKPGRAPKLLIYAASTLQSGVPSRFSGSGSGTEFTLTISSLQPEDFATYYCQLLNSYPVHFGQGTKLEIKR",1.37 nM
2,"WJQ-C11 (antibody, V domains shown) VH: EVQLVESGGGLVQPGGSLRLSCAASGFAFSTYEMNWVRQAPGKGLEWVSYIHNSGNPVYYADSVKGRFTISRDNAENSLYLQMNSLRAEDTAIYYCARALRYSTSWYDYWGQGTLVTVSS VL: EIVLTQSPVSLSLSPGERATLSCRASQSVSSYLAWYQQKPGQAPRLFIYDASKRATGIPARFSGSGSGTDFTLTISSLEPEDFAVYYCQQRSNWPRTFGQGTKVEIKR",5.29 nM
3,"SW-C11 (antibody, V domains shown) VH: EVQLVESGGGLIQPGGSLRLSCAASEFIVSRNYMSWVRQAPGTGLEWVSVIYPGGSTFYADSVKGRFTISRDNSKNTLYLQMDSLRVEDTAVYYCARDYGDFYFDYWGQGTLVTVSS VL: EIVMTQSPVSLSVSPGERATLSCRASQGVASNLAWYQQKAGQAPRLLIYGASTRATGIPARFSGSGSGTEFTLTISTLQSEDSAVYYCQQYNDRPRTFGQGTKLEIKR",< 0.001 nM
